In patent US20180118841A1 (published 2018):
Values belong to the binder of their own block, whether it stands above or below them.

Columns and labels:
CTLA-4 (BMS, Orencia) = molecular target: T1, CTLA-4 (BMS, Orencia) (human); assay: cell-based or functional assay
T1 chain: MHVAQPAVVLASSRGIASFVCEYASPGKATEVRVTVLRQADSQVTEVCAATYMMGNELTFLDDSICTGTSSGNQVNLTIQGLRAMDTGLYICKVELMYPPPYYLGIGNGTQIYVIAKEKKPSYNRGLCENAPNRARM

[1] = molecular target: CD137 on primary human CD8+ T cells (human, UniProt Q07011 24-255); assay: cell-based or functional assay
[2] = molecular target: T2, CD137 human/mouse chimera 1554 (human; mouse, UniProt P20334 96-159, limits assumed); assay: FACS, 293-F transfectants; MFI/isotype, normalized to full-length CD137
T2 construct: domain: 3B, 4A and 4B; On 293-F cells; Human ranges derived from the printed mouse range; also called 1411
T2 sequence (P20334 other isoform, or with tags, fused parts or gaps mutant limits assumed): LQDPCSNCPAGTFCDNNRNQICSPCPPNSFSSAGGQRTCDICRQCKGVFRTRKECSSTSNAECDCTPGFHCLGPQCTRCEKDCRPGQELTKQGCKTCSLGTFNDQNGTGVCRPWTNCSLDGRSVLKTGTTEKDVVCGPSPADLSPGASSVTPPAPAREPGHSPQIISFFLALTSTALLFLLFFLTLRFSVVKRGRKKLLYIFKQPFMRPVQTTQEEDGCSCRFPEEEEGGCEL

Sequence of CD137 on primary human CD8+ T cells (Q07011 24-255 limits assumed): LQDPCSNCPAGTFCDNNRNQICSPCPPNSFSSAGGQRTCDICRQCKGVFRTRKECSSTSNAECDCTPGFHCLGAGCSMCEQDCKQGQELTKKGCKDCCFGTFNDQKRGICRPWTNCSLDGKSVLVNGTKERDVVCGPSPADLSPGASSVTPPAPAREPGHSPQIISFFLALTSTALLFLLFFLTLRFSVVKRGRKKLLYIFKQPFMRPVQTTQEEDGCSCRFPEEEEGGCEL

- Mean IL-2 level (pg/ml) induced at 1.5 nM (CTLA-4 (BMS, Orencia)): 3200 pg/mL
B1: bispecific OX40/CTLA-4 molecule 1526/1585 (bispecific antibody, human IgG1, kappa)
heavy: not shown
light: DIQMTQSPSSLSASVGDRVTITCRASQSISSYLNWYQQKPGKAPKLLIYAASSLQSGVPSRFSGSGSGTDFTLTISSLQPEDFATYYCQQYGSDSLLTFGQGTKLEIKRTVAAPSVFIFPPSDEQLKSGTASVVCLLNNFYPREAKVQWKVDNALQSGNSQESVTEQDSKDSTYSLSSTLTLSKADYEKHKVYACEVTHQGLSSPVTKSFNRGECSGGGGSGGGGSAPLKIQAYFNETADLPCQFANSQNLSLSELVVFWQDQENLVLNEVYLGKERFDSVDSKYMGRTSFDSDSWTLRLHNLQIKDKGRYQCIIHHKKPTGMINIHQMNSELSVLA

- Mean IFN-γ (pg/ml), CD8+ T cell assay [1]: 64400 pg/mL
- relative binding [2]: 0.73
B2: anti-CD137 antibody 1204/1205 (antibody, IgG1, V domains shown)
VH: EVQLLESGGGLVQPGGSLRLSCAASGFTFSSYYMGWVRQAPGKGLEWVSGIGSYYGYTGYADSVKGRFTISRDNSKNTLYLQMNSLRAEDTAVYYCARAYYDYNYYYAYFDYWGQGTLVTVSS
VL: DIQMTQSPSSLSASVGDRVTITCRASQSISSYLNWYQQKPGKAPKLLIYAASSLQSGVPSRFSGSGSGTDFTLTISSLQPEDFATYYCQQSVPHYPFTFGQGTKLEIK
notes: Produced as IgG; IgG1 format stated for the T cell assay
